From PMC5618617 (International Journal of Molecular Sciences, 2017)
No end group written: not given here. cellulose support = cellulose support (Whatman 50 cellulose membrane) to which the peptide C-terminus is covalently bound

Key:
Details in all cases: both partners purified
[1] = biological target: T1, c-Met peptide F-7 (527–541) (Homo sapiens (Human)., cysteine pairing not given here); assay: peptide or protein array; overlapping 15-mer peptides of c-Met 1-932, 5 nmol/spot, bound by the C-terminus to cellulose; scFv in 5% skim milk at 4 °C overnight; bound scFv electroblotted to PVDF and detected with anti-HA-peroxidase
T1 construct: c-Met, human, amino acids 527-541; source: synthetic peptide (JPT Peptide Technologies), on cellulose membrane
T1 chain: SQCLSAPPFVQCGWC-{cellulose support}

[2] = biological target: T2, c-Met peptide G-7 (531–545) (Homo sapiens (Human)., cysteine pairing not given here); assay: as above
T2 construct: c-Met, human, amino acids 531-545; source: synthetic peptide (JPT Peptide Technologies), on cellulose membrane
T2 chain: SAPPFVQCGWCHDKC-{cellulose support}

[3] = biological target: T3, c-Met peptide E-7 (523–537) (Homo sapiens (Human)., cysteine pairing not given here); assay: as above
T3 construct: c-Met, human, amino acids 523-537; source: synthetic peptide (JPT Peptide Technologies), on cellulose membrane
T3 chain: FQSCSQCLSAPPFVQ-{cellulose support}

[4] = biological target: T4, human c-Met extracellular domain (ECD)-fragment crystallizable region (Fc) (human, UniProt P08581); assay: ELISA; competitive: recombinant human c-Met coated; pre-bound with or without 2.5 µg/mL HGF 1 h at room temperature; then IRCR201 or huOA5D5.v2 1 h; antibody detected with anti-human IgG F(ab')2-HRP
T4 construct: hepatocyte growth factor receptor (c-Met), human, extracellular domain; c-Met is naturally cut into alpha and beta chains; also called human c-Met ECD-Fc; recombinant human whole c-Met ECD-Fc; source: bought: Sino Biological, 10692-H03H

[5] = biological target: T4, human c-Met extracellular domain …; assay: SPR; Biacore T100; human c-Met, mouse c-Met or BSA amine-coupled on a CM5 chip; different concentrations of purified IRCR201 injected
mouse c-Met ECD-Fc = biological target: T5, mouse c-Met ECD-Fc (Mus musculus, UniProt P16056); assay: as above
T5 construct: hepatocyte growth factor receptor (c-Met), mouse, extracellular domain; source: bought: Sino Biological, 50622-M02H

bovine serum albumin = biological target: T6, bovine serum albumin (Bos taurus (Bovine)., UniProt P02769); assay: as above
T6 construct: serum albumin, bovine; also called BSA

[6] = biological target: T7, human RON (recepteur d'origine nantais) ECD-Fc (Homo sapiens, UniProt Q04912); assay: ELISA; 0.1 µg antigen coated per well at 4 °C overnight, blocked with 3% skim milk; dilutions of IRCR201 1 h at room temperature; goat anti-human IgG F(ab')2-HRP
T7 construct: RON receptor tyrosine kinase (macrophage-stimulating protein receptor), human, extracellular domain; The legend calls it ECD-Fc; the catalogue number's ending (H08H) may stand for a His-tagged product (surmise); also called human RON protein; source: bought: Sino Biological, 11608-H08H

B1: IRCR201 single-chain variable fragment (scFv) (scFv, V domains shown)
VH: EVQLLESGGGLVQPGGSLRLSCAASGFTFSNYAMSWVRQAPGKGLEWVSGISYSGGSTYYADSVKGRFTISRDNSKNTLYLQMNSLRAEDTAVYYCAKASRSCQRPACSYANGMDVWGQGTLVTVSS
VL: QSVLTQPPSASGTPGQRVTISCTGSSSNIGNNYVTWYQQLPGTAPKLLIYYNNHRPSGVPDRFSGSKSGTSASLAISGLQSEDEADYYCGSWDYSLSAYVFGGGTKLTVL
notes: VH and VL as in m1; Detected with anti-HA-peroxidase; also called scFv of IRCR201; IRCR201 scFv; source: E. coli TOP10F', purified from bacterial lysates (Ni-NTA agarose)
[1]
  binding result: binds
[2]
  binding result: binds
[3]
  binding result: binds

B2: onartuzumab (huOA5D5.v2) (antibody, V domains shown)
VH: EVQLVESGGGLVQPGGSLRLSCAASGYTFTSYWLHWVRQAPGKGLEWVGMIDPSNSDTRFNPNFKDRFTISADTSKNTAYLQMNSLRAEDTAVYYCATYRSYVTPLDYWGQGTLVTVSS
VL: DIQMTQSPSSLSASVGDRVTITCKSSQSLLYTSSQKNYLAWYQQKPGKAPKLLIYWASTRESGVPSRFSGSGSGTDFTLTISSLQPEDFATYYCQQYYAYPWTFGQGTKVEIK
notes: second chain of the monovalent knob-into-hole format; Engineered monovalent (one-armed) antibody made with knob-into-hole technology; also called MetMab; source: Expi293 transient mammalian expression system, purified (HiTrap Mabselect SuRe); copies: 1 + 1 + 1
[4]
  binding result: binds

B3: IRCR201 (antibody, V domains shown)
VH: EVQLLESGGGLVQPGGSLRLSCAASGFTFSNYAMSWVRQAPGKGLEWVSGISYSGGSTYYADSVKGRFTISRDNSKNTLYLQMNSLRAEDTAVYYCAKASRSCQRPACSYANGMDVWGQGTLVTVSS
VL: QSVLTQPPSASGTPGQRVTISCTGSSSNIGNNYVTWYQQLPGTAPKLLIYYNNHRPSGVPDRFSGSKSGTSASLAISGLQSEDEADYYCGSWDYSLSAYVFGGGTKLTVL
notes: CDR-H3 of 18 amino acids; IgG1; frameworks are not pointed to; also called IRCR201 IgG1; fully human bivalent anti-c-Met antibody; source: Expi293 transient mammalian expression system, purified (HiTrap Mabselect SuRe); copies: 2 + 2
[5]
  Kd: 0.721 nM
  koff: 0.00304 s⁻¹
  kon: 4.23e+06 M⁻¹ s⁻¹
Mouse c-Met ECD-Fc
  Kd: 0.845 nM
  koff: 0.00323 s⁻¹
  kon: 3.83e+06 M⁻¹ s⁻¹
Bovine serum albumin
  binding result: no binding
[6]
  binding result: no binding
